Laboratory results published in publication PMC6281582.

Biological target: FOXO3a (UniProt O43524)
Assay: IP of FOXO3a, anti-Flag blot for SirT6
Conditions: reference: WT-SirT6; sites S338

binding against the reference: lost
Substance: SirT6 (from UniProt Q8N6T7) S338A
